The assay deals with healthy donor platelets. Nature of the assay: Procoagulant platelet flow cytometry assay, healthy donor whole blood with VITT patient plasma. Particulars: exogenous purified human PF4 25 μg/mL, VITT positive (n=6) and negative (n=8) cases (FIG. 12A). It is filed as cell-based, human.

B1: PF4: native human PF4 purified from expired platelet concentrate (protein, UniProt P02776 32-101, looked up)
Platelet factor 4: EAEEDGDLQCLCVKTTSQVRPRHITSLEVIKAGPHCPTAQLIATLKNGRKICLDLQAPLYKKIIKKLLES
Turning to B1, the “effect on flow cytometry assay results” value is listed as “did not alter the results”.
